Laboratory results published in patent US20030028002A1, “Cyclin D binding factor, and uses thereof” (published 2003).

B1: cyclin D1-CDK4 complex (protein)
chain 1: MEHQLLCCEVETIRRAYPDTNLLNDRVLRAMLKTEETCAPSVSYFKCVQKEIVPSMRKIVATWMLEVCEEQKCEEEVFPLAMNYLDRFLSLEPLKKSRLQLLGATCMFVASKMKETIPLTAEKLCIYTDNSIRPEELLQMELLLVNKLKWNLAAMTPHDFIEHFLSKMPEADENKQTIRKHAQTFVALCATDVKFISNPPSMVAAGSVVAAMQGLNLGSPNNFLSCYRTTHFLSRVIKCDPDCLRACQEQIEALLESSLRQAQQNVDPKATEEEGEVEEEAGLACTPTDVRDVDI
chain 2: MAATRYEPVAEIGVGAYGTVYKARDPHSGHFVALKSVRVPNGGAAGGGLPVSTVREVALLRRLEAFEHPNVVRLMDVCATSRTDRDIKVTLVFEHIDQDLRTYLDKAPPPGLPVETIKDLMRQFLSGLDFLHANCIVHRDLKPENILVTSNGTVKLADFGLARIYSYQMALTPVVVTLWYRAPEVLLQSTYATPVDMWSVGCIFAEMFRRKPLFCGNSEADQLGKIFDLIGLPPEDDWPREVSLPRGAFAPRGPRPVQSVVPEMEESGAQLLLEMLTFNPHKRISAFRALQHSYLHKEESDAE
B2: cyclin D2-CDK4 complex (protein)
chain 1: MELLCCEVDPVRRAVPDRNLLEDRVLQNLLTIEERYLPQCSYFKCVQKDIQPYMRRMVATWMLEVCEEQKCEEEVFPLAMNYLDRFLAGVPTPKTHLQLLGAVCMFLASKLKETIPLTAEKLCIYTDNSVKPQELLEWELVVLGKLKWNLAAVTPHDFIEHILRKLPQQKEKLSLIRKHAQTFIALCATDFKFAMYPPSMIATGSVGAAICGLQQDDEVNTLTCDALTELLAKITHTDVDCLKACQEQIEALLLNSLQQFRQEQHNAGSKSVEDPDQATTPTDVRDVDL
chain 2: B1 chain 2
B3: cyclin D3-CDK4 complex (protein)
chain 1: MELLCCEGTRHAPRAGPDPRLLGDQRVLQSLLRLEERYVPRASYFQCVQKEIKPHMRKMLAYWMLEVCEEQRCEEDVFPLAMNYLDRYLSCVPTRKAQLQLLGTVCLLLASKLRETTPLTIEKLCIYTDQAVAPWQLREWEVLVLGKLKWDLAAVIAHDFLALILHRLSLPSDRQALVKKHAQTFLALCATDYTFAMYPPSMIATGSIGAAVLGLGACSMSADELTELLAGITGTEVDCLRACQEQIEAALRESLREAAQTAPSPVPKAPRGSSSQGPSQTSTPTDVTAIHL
chain 2: B1 chain 2
B4: cyclin D1 (other, mouse, UniProt P25322 1-295, looked up)
chain: B1 chain 1
B5: cyclin D2 (other, mouse, UniProt P30280 1-289, looked up)
chain: B2 chain 1
B6: cyclin D3 (other, mouse, UniProt P30282 1-292, looked up)
chain: B3 chain 1

Columns and labels:
[1] = biological target: B6; experiment: coinfected Sf9 cells, coprecipitation
[2] = biological target: B5; experiment: coinfected Sf9 cells, coprecipitation
[3] = biological target: T1, DMP1 expressed in 293T cells (Mus musculus) (UniProt Q8CE22); experiment: cell_activity; conditions: 6x BS1 luciferase reporter
T1 sequence: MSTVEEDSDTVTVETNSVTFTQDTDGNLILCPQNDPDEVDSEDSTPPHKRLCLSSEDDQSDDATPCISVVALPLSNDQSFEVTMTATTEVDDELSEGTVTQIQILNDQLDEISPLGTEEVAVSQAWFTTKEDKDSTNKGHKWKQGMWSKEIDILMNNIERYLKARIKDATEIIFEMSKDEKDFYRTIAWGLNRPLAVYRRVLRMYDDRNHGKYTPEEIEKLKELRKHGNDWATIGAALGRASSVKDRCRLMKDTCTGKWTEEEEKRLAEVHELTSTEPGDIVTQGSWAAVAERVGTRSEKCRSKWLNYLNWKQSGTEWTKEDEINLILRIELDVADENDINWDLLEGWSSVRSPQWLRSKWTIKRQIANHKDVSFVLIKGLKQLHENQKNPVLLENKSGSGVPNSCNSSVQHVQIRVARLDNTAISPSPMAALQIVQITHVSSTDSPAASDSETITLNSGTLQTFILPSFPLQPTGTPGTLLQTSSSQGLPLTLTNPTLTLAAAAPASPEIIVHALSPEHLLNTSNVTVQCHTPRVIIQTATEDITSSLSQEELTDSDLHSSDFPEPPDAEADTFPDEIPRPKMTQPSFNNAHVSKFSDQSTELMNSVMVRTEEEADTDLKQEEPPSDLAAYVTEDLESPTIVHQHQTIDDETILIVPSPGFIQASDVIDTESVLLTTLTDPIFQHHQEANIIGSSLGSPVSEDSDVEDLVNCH

[4] = biological target: B6; experiment: GST pull-down of 35S-labelled in vitro translated cyclin on glutathione-Sepharose, gel autoradiography
Procedure: (§1) Because DMP1 interacted with cyclin D2 in yeast, the ability of a glutathione S-transferase (GST)-DMP1 fusion protein to bind D-type cyclins in vitro is examined. GST is fused to residues 176-761 of DMP1 (in lieu of GAL4 in the original cDNA clone), and the bacterially synthesized recombinant protein is incubated with [³⁵S]methionine-labeled D-type cyclins prepared by transcription and translation in vitro. As a positive control, GST-RB which can specifically bind D-type cyclins in this assay is used (15). Bound cyclins recovered on washed glutathione-Sepharose beads are analyzed by electrophoresis on denaturing gels. […] GST-DMP1 is less efficient than GST-RB in binding cyclins D2 and D3 (˜4-fold less binding), and under these conditions, an interaction with D1 is not detected (lanes 3, 7, 11). No labeled proteins bind to GST alone (lanes 4, 8, 12), and neither cyclin A nor cyclin E bind to GST-RB or to GST-DMP1. A cyclin D2 mutant disrupted in an amino-terminal Leu-X-Cys-X-Glu pentapeptide that is required for high efficiency GST-RB binding is not detectably compromised in its interaction with GST-DMP1 (negative data not shown); in agreement, DMP1 bears no homology to RB or to RB-related family members (p107 and p130).

[5] = biological target: B5; experiment: as above
Procedure: as §1

[6] = biological target: T2, GST-DMP1 fusion protein (GST fused to residues 176-761 of DMP1)
T2 chain: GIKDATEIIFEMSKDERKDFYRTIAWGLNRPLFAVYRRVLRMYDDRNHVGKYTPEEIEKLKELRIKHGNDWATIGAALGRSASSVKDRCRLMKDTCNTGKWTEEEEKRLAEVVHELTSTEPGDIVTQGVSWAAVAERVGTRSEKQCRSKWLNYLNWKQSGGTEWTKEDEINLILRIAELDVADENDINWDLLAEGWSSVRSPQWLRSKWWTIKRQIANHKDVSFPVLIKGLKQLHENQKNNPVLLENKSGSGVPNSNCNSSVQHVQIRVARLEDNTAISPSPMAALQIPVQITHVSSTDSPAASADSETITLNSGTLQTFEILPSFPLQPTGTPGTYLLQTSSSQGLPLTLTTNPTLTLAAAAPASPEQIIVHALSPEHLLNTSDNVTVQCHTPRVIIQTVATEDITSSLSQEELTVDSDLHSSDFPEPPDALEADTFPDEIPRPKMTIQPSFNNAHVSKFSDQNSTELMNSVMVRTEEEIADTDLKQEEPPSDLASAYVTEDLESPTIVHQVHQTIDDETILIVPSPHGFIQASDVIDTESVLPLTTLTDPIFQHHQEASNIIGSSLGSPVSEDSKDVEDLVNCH

[7] = biological target: GST-RB fusion protein [GST: P08515]
Sequence of GST-RB fusion protein [GST: P08515] (P08515 whole entry, looked up, the tested form may be a part): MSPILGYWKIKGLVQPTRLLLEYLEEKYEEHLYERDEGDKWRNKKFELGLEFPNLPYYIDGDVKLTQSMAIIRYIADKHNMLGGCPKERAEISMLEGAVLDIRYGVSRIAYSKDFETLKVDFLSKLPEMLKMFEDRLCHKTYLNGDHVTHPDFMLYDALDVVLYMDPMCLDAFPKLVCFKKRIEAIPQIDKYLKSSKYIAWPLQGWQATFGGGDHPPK

[8] = biological target: T3, DMP1 (cyclin D-binding myb-like protein), murine, full length (mouse, UniProt Q8CE22 1-761, multiple phosphorylated forms when made in Sf9 cells (sites not given)); experiment: cell-based or functional assay
T3 sequence: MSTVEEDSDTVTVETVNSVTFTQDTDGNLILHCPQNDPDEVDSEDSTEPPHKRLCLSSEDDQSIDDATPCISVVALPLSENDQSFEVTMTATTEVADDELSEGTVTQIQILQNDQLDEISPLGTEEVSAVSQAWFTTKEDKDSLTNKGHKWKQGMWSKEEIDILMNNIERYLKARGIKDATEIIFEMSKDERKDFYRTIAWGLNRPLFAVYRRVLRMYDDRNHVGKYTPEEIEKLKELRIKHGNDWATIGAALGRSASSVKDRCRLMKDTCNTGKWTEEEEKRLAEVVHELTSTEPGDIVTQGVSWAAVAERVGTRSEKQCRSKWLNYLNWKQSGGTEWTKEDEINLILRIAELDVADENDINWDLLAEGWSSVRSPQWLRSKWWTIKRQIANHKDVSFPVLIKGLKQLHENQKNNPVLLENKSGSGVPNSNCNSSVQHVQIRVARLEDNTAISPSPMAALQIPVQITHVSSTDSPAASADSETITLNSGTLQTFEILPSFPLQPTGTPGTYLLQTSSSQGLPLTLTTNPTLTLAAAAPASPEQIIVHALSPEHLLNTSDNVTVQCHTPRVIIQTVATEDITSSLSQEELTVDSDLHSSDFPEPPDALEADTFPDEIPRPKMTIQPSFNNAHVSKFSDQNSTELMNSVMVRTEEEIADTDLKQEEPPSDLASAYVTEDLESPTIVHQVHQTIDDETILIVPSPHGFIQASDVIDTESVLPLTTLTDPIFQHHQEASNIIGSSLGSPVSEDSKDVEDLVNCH

Molecule | in vitro phosphorylation of the GST fusion protein by Sf9 lysates (32P) [6] | in vitro phosphorylation of the GST fusion protein by Sf9 lysates (32P) [7] | Luciferase Activity (DMP1 transactivation of a DMP1-responsive reporter; DMP1 alone 8.4, no DMP1 1.0) [8] | other results
RB (retinoblastoma protein) coexpressed in Sf9 cells |  |  |  | binding ratio of cyclin to RB [1]: 1 ratio (1:1); binding ratio of cyclin to RB [2]: 1 ratio (1:1)
AATTGACCCGGATGTAGGTACGC (double strand) [BS1] |  |  |  | activity (fold activation) [3]: 7
GST-RB fusion protein (from UniProt P08515 1-218) |  |  |  | percent of the total input protein bound [4]: 20%; percent of the total input protein bound [5]: 20%
B1 | lysates containing active cyclin D-CDK4 complexes phosphorylate both | Under equivalent conditions, GST-RB is always a preferred substrate |  | 
B2 | lysates containing active cyclin D-CDK4 complexes phosphorylate both | Under equivalent conditions, GST-RB is always a preferred substrate |  | 
B3 | different preparations of cyclin D3-CDK4 are routinely more active than D2- or D1-containing holoenzymes in phosphorylating DMP1 | Under equivalent conditions, GST-RB is always a preferred substrate |  | 
B4 |  |  | 1.5 relative to empty expression vector = 1.0 | 
B5 |  |  | 1.6 relative to empty expression vector = 1.0 | 
B6 |  |  | 1.6 relative to empty expression vector = 1.0 | 
